{"source": "IntAct's records for PubMed 25619834", "parents": {"B1": {"name": "Influenza virus NS1A-binding protein (Homo sapiens), Q9Y6Y0 (parent)", "chain": "MIPNGYLMFEDENFIESSVAKLNALRKSGQFCDVRLQVCGHEMLAHRAVLACCSPYLFEIFNSDSDPHGISHVKFDDLNPEAVEVLLNYAYTAQLKADKELVKDVYSAAKKLKMDRVKQVCGDYLLSRMDVTSCISYRNFASCMGDSRLLNKVDAYIQEHLLQISEEEEFLKLPRLKLEVMLEDNVCLPSNGKLYTKVINWVQRSIWENGDSLEELMEEVQTLYYSADHKLLDGNLLDGQAEVFGSDDDHIQFVQKKPPRENGHKQISSSSTGCLSSPNATVQSPKHEWKIVASEKTSNNTYLCLAVLDGIFCVIFLHGRNSPQSSPTSTPKLSKSLSFEMQQDELIEKPMSPMQYARSGLGTAEMNGKLIAAGGYNREECLRTVECYNPHTDHWSFLAPMRTPRARFQMAVLMGQLYVVGGSNGHSDDLSCGEMYDSNIDDWIPVPELRTNRCNAGVCALNGKLYIVGGSDPYGQKGLKNCDVFDPVTKLWTSCAPLNIRRHQSAVCELGGYLYIIGGAESWNCLNTVERYNPENNTWTLIAPMNVARRGAGVAVLNGKLFVCGGFDGSHAISCVEMYDPTRNEWKMMGNMTSPRSNAGIATVGNTIYAVGGFDGNEFLNTVEVYNLESNEWSPYTKIFQF"}}}
{"variants_of": "B1", "settings": "with cul3_human CUL3, Q13618"}
{"variant": "M114L", "effect of a mutation on the interaction": "causing an interaction"}
{"variant": "F75L", "effect of a mutation on the interaction": "causing an interaction"}
